The text below walks through data of patent CN114262377A (XINJIANG YOUMAI BIOTECHNOLOGY CO LTD, dated 2022).

One test has as its target T1, CD70 on 卵巢癌细胞SKOV3 (UniProt P32970 1-193, limits assumed).
T1 construct: whole, on cells; also called 肿瘤细胞
T1 sequence (looked up): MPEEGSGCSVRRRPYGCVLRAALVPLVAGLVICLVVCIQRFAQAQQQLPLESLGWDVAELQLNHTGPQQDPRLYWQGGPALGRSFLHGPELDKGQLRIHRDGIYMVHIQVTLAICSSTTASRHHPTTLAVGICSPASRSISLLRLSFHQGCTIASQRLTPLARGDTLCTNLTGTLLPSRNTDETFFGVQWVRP
The test can be described thus: flow cytometry (MFI) on SKOV3 cells, goat anti-human IgG Fc-FITC. Background: Flow cytometry measures light scatter and fluorescence of single cells or particles in a stream.

Test [1] concerns the target T2, human CD70-His (human, UniProt P32970 39-193, limits assumed).
T2 construct: also called 重组CD70蛋白; human CD70-His (Cat#CDL-H82D7); not shown: His tag
T2 sequence (looked up): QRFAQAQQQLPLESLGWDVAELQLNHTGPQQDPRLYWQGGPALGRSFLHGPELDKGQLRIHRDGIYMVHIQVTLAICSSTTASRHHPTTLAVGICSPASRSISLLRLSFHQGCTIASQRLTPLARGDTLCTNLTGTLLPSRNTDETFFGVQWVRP
As to the kind of experiment: ELISA, human CD70-His coated 0.5 ug/ml, HRP-anti-human Fc. On the technique in general: In an ELISA, binding on a coated surface is turned into a signal by an enzyme label.

In the next test the target is T3, mFc-CD70.
T3 sequence (P32970 whole entry, species assumed, looked up): T1 sequence (looked up)
The test can be described thus: competition ELISA: blocks mFc-CD70 (75 ng/ml) binding to coated human CD27-His.

Test [2] addresses T2, human CD70-His. The test can be described thus: BLI (Fortebio), AHC sensor, antibody loaded at 4 ug/ml, human CD70-His trimer 60 nM in solution.
For another test, the target named is T4, mouse CD70-His (mouse, UniProt O55237 45-195, limits assumed).
T4 construct: also called 鼠CD70; not shown: His tag
T4 sequence (looked up): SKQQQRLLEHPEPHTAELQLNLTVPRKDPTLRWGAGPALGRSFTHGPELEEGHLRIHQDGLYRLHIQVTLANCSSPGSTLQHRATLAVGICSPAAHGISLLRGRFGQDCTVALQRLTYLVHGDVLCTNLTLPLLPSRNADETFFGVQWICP
As to the kind of experiment: ELISA, mouse CD70-His coated 0.5 ug/ml, HRP-anti-human Fc.

The target of a further test is T5, cyno-CD70-His (cynomolgus monkey, UniProt A0A2K5WTU9 39-190).
T5 construct: also called 食蟹猴CD70蛋白; 猴CD70; not shown: His tag
T5 sequence: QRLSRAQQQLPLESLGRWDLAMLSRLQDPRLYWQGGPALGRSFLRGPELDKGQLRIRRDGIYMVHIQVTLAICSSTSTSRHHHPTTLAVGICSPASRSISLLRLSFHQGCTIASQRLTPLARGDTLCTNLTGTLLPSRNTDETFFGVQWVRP
As to the kind of experiment: ELISA, cyno-CD70-His coated 0.5 ug/ml, HRP-anti-human Fc.

B1: CHO细胞表达的含有人IgG-Fc结构域的CD70纳米抗体VHH-B6-Fc (Fc fusion)
chain: QVQLQESGGGSVQAGGSLRLSCVASDLIVNDGCMAWFRQVPGKEHEGVARIAIPTTPGSTLYADSVKGRFTISRDGAKNTLYLQMNSLKPEDTAVYYCAADQWASRGCTAIATIPAEFDYWGQGTQVTVSS
notes: Order VHH then Fc follows the printed name; also called XJ-B6; VHH-B6 (as named in the results of the Fc-format assays); not shown: human IgG Fc domain
By EC50 is commonly meant the concentration giving half of the maximal effect. For orientation: IC50 means the concentration that gives 50% inhibition. High values mean weaker potency, low ones greater potency. By Kd is commonly meant the concentration at which binding is half-saturated. B1: the EC50 with CD70 on 卵巢癌细胞SKOV3 was determined as 1740 pM; in the test with human CD70-His [1], 0.0244 µg/mL; in the test with cyno-CD70-His, 0.00571 µg/mL. In the test with mFc-CD70, this molecule yielded a concentration for half-maximal inhibition (IC50) of 0.0576 µg/mL. For the same molecule, the dissociation constant Kd with human CD70-His [2] was < 1 pM. Further, in the test with mouse CD70-His, the binding result was “no binding”.

B2: CHO细胞表达的含有人IgG-Fc结构域的CD70纳米抗体VHH-B3-Fc (Fc fusion)
chain: LQESGGGSVQAGGSLRLSCAASGIIVNDGCMAWFRQVPGKEREGVAGIVIGEYGGGTTYYADSVKGRFTISRDRAKNTLYLQMNSLKPEDTAMYYCAADQWASGGCTSIATFSDEFDYWGQGTQVTVSS
notes: Order VHH then Fc follows the printed name; also called XJ-B3; VHH-B3 (as named in the results of the Fc-format assays); not shown: human IgG Fc domain
For B2, the values for the half-maximal effective concentration (EC50) in the test with CD70 on 卵巢癌细胞SKOV3 and with human CD70-His [1] were 374 pM and 0.0251 µg/mL, respectively. In addition, the IC50 with mFc-CD70 worked out at 0.06 µg/mL. Moreover, the Kd in the test with human CD70-His [2] is < 1 pM. In addition, in the test with mouse CD70-His, the binding result was “no binding”.
